Measured values taken from the supplement of paper PMC10126150.
± gives the standard deviation of the averaged measurements.

System: ATP
Experiment: switch fluorescence ratio, 500 uM ATP over buffer (Cy3 cluster intensity, sum of 5 cycles each) (fold (ratio)); higher = stronger signal-on switching upon ATP binding; sequences stand for … in TCGTCGGCAGCGTCAGATGTGTATAAGAGACAGTTTTTTTTTTTTTTTTTTTTTTTTT…TC
Conditions: aptamer strand: ATP DNA aptamer (quencher-CACCTGGGGGAGTATTGCGGAGGAAGG + anchor), 100 nM annealed; ATP concentration: 500 uM
Summary of the method: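 For every switch-domain sequence, the fluorescence ratio is the mean of per-cluster values, each being summed target-cycle Cy3 intensity over summed buffer-cycle Cy3 intensity. Clusters outside 100-1000 RFU were excluded. On a modified Illumina MiSeq flow-cell, the Cy3-labelled switching-strand clusters were annealed to 100 nM quencher-labelled ATP aptamer, imaged in selection buffer and then after 15 min with 500 uM ATP at 22 °C. Five such cycles were run, with NaOH stripping and re-annealing between them.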
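Also: ATP exposure 15 min at 22 °C before imaging.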

Sequence	switch fluorescence ratio
GAGAGGAAAT	1.004 ± 0.0059
AATGAGAGTG	1 ± 0.035
TTACTTAGGG	1.14 ± 0.17
AAAGGTGCGG	0.9931 ± 0.0063
TCGGGTGTGT	0.9889 ± 0.009
AAATTAGGGA	0.978 ± 0.046
CAGTTCTCTA	0.981 ± 0.0068
GAGGTCAAGG	0.987 ± 0.033
AGGGATCAGC	1 ± 0.008
GGATATGTTG	0.994 ± 0.019
CGGTGGTTTG	0.996 ± 0.026
AATGTTCACG	1.02 ± 0.019
AGATTTATGT	1.01 ± 0.047
TATTGTAACC	1.03 ± 0.016
GGATTTGGGT	0.981 ± 0.017
GCGGTATGGG	0.9645 ± 0.0046
TGGTTGGGCT	1.01 ± 0.026
TATAGGCTCA	0.976 ± 0.033
CGGGTAGTTG	0.995 ± 0.014
CAAAAGGGAA	1.02 ± 0.024
TTATCTTACA	0.996 ± 0.059
TGGCTTGGGG	1.03 ± 0.051
TGCGAAACTT	1.07 ± 0.011
TTTTTGGATA	1.02 ± 0.014
AAGCCAGTGG	1.014 ± 0.0035

Sequence	switch fluorescence ratio
GTGGCTGCGT	0.9776 ± 0.0063
GTGCCTGATG	1.05 ± 0.046
ATCAGGGTAT	1.07 ± 0.089
CAGGCGAGGG	0.9905 ± 0.0078
TAATACTATT	1.05 ± 0.016
AAGTACGGAG	1.04 ± 0.052
AGTTATCGAC	1.01 ± 0.021
ATTAGTTCCG	0.9814 ± 0.0025
GGGCGGGCTG	1.006 ± 0.0084
TGGGTAGGCT	0.996 ± 0.035
TGAGTACTGA	1.02 ± 0.024
AGAATTCTAG	1.01 ± 0.022
TTACGGGTGC	1.19 ± 0.033
GAGTGGTGTG	0.979 ± 0.035
GGGGTAGGAC	1.01 ± 0.017
GCACCTTGAG	1.001 ± 0.0014
ACGCTGTTGA	1.03 ± 0.047
CTGCCAGGTT	1.146 ± 0.0052
TATTTTAGGG	0.985 ± 0.029
TATGTAGACG	1.04 ± 0.064
TCTTCACTAA	1 ± 0.052
ATTAAATTTT	1.01 ± 0.032
CAGATAGTGT	1.018 ± 0.002
AGACGAGAAT	1.09 ± 0.14
CGTTCTGGAG	1.2 ± 0.038

Sequence	switch fluorescence ratio
TCAAGTGTTT	0.993 ± 0.015
TGTTAATAGC	1.03 ± 0.032
TGGTAATAGG	1.0108 ± 0.00095
TCTTTTCAGC	0.992 ± 0.045
TGATTCGGCG	1.03 ± 0.069
AATAAGATGT	0.999 ± 0.066
TAAATCCGGA	0.995 ± 0.06
TTGATCACTT	1.001 ± 0.005
ATTAAAAGA	1.01 ± 0.023
CTAAAGTGGG	0.973 ± 0.015
CGGTTCGCGA	1.03 ± 0.019
CGAATTCAGG	1.012 ± 0.0068
TATAGGTCGA	1.03 ± 0.011
TACTTGTCGG	0.985 ± 0.025
GGTATCGCGG	1 ± 0.023
GGCGTTCGCT	0.984 ± 0.026
TAAAAACGTT	1.07 ± 0.086
GGGTAAATTG	1.041 ± 0.0068
GGGTGTTCCT	0.989 ± 0.039
TTGGGATTAG	1.01 ± 0.029
CTGTTGGTGG	0.99 ± 0.017
GTGATCTATA	0.99 ± 0.025
AGGCGTTCTG	0.991 ± 0.051
GGGTAATGCG	1.06 ± 0.058
CTTCGTCTCG	1.08 ± 0.072

Sequence	switch fluorescence ratio
ATGCGGTAGA	1.02 ± 0.042
CAATTTTCTT	1.02 ± 0.025
CGATTTTAGG	1 ± 0.035
TTTTTGGGAA	0.996 ± 0.029
CCTTATCAGG	1.04 ± 0.02
GCAGTTTGGA	0.989 ± 0.015
AGTTCCATTT	0.97 ± 0.028
GAGGTACCGC	1.05 ± 0.029
AGACTTTAGT	1.01 ± 0.036
GGACGGGGAC	1.12 ± 0.015
ACCAAAGGCT	1.03 ± 0.04
AGACGTAGTG	0.99 ± 0.029
TGCGAATTCG	0.996 ± 0.037
ATGTATGATA	0.967 ± 0.013
ATCGTTGTGG	0.9893 ± 0.0048
GCGTACGGCG	0.993 ± 0.054
AGTAATGTAG	1 ± 0.037
GTTGGAAAGG	0.97 ± 0.039
GGTTTCAGGG	0.986 ± 0.013
TTTGCGACCT	1.13 ± 0.066
GGGGTGTTGT	1 ± 0.04
ATCAGATTAC	1.025 ± 0.0092
CAAATGGCTG	1.04 ± 0.074
AAATAAGTC	0.945 ± 0.024
AATTCGCACG	1.034 ± 0.006

Sequence	switch fluorescence ratio
GATTTATTTA	0.993 ± 0.015
TTTTATTTA	0.9701 ± 0.0072
TTCCGGGCGT	1.12 ± 0.058
TGGTACGGGA	0.999 ± 0.043
TCAAACAGTG	1.02 ± 0.039
TTCACTTGGA	1.03 ± 0.033
GGTCCGGGGC	1.01 ± 0.026
GCTAATTATA	1.01 ± 0.015
CATGTAAGTT	0.986 ± 0.018
CTTATGATAG	0.97 ± 0.013
CGACAAGAAC	2.94 ± 0.18
ACTCACGGGA	1.46 ± 0.36
CGGTGAAAAT	0.97 ± 0.027
TTTTTATGCA	1.018 ± 0.0031
TGGCCTTCGT	1.13 ± 0.049
CGGGGTTAAG	0.975 ± 0.025
CGGCAAGTAT	1.063 ± 0.0089
AGTCAGTCTG	1.01 ± 0.059
TTCGTGTAAG	1.02 ± 0.015
GATTTAAACA	1.02 ± 0.029
CAGCTAGTGG	1.011 ± 0.0011
GTTTTTTAAG	0.9877 ± 0.0089
GGAGTGTTTC	1.01 ± 0.016
GGGATGTTAA	0.976 ± 0.038
TTATCTGGAA	1.06 ± 0.055

Sequence	switch fluorescence ratio
GCTTGGTGCT	1.05 ± 0.031
AGGGGTTCTG	1.01 ± 0.046
TGTGCGTCGA	1.001 ± 0.00055
ACGAAGGCTA	1.14 ± 0.028
GGAGTTTAAG	0.996 ± 0.039
ATGGTGTTAT	0.989 ± 0.014
GACACAAAAG	1.069 ± 0.0023
CACCCTACTA	1.29 ± 0.018
TTCGTATCAT	1.049 ± 0.0097
CGGACCGGGA	1.06 ± 0.012
TGATACTGCT	0.961 ± 0.035
CTGGGTTTAT	1 ± 0.042
TGCCCGCCGT	1.03 ± 0.067
TGGTAGGGTA	1.03 ± 0.034
GCGGATTGTG	1.032 ± 0.0053
GTCAATTGAT	0.9924 ± 0.0074
TGGGGAAAAG	1.09 ± 0.31
GTATAACCCG	0.992 ± 0.026
TTCCTAAAGA	1.06 ± 0.03
TGATAATAGG	0.989 ± 0.021
AAAACCAGCG	1.03 ± 0.047
AATAAAATTT	1.04 ± 0.022
TTAGGTTGCA	0.9809 ± 0.0092
ATTCTCGTGG	0.997 ± 0.036
TAGATAAACT	0.9969 ± 0.0039

Sequence	switch fluorescence ratio
GAAGATAGTG	0.986 ± 0.03
CCTAGTTGGC	1.03 ± 0.083
ACTGGGATCA	1.03 ± 0.02
TTTTAGTGAC	1.022 ± 0.0053
TGTCAGACGT	1 ± 0.011
TTATAGACAG	0.997 ± 0.034
GTTTGTACGT	0.975 ± 0.038
AAGTCCCGCT	1.12 ± 0.17
GCTCTTATTA	0.977 ± 0.021
CGGTTTATGG	0.943 ± 0.022
TTTTTGGCCA	1.01 ± 0.051
GTGTTACGTT	1.02 ± 0.021
TTTGGCTACG	1.01 ± 0.011
GAGGGTTAGT	0.9866 ± 0.0066
GCAAGTTTGC	1.04 ± 0.042
ATCTGGGTTA	0.993 ± 0.013
GGTTAAACAG	0.982 ± 0.041
TACTCGTTGA	1.04 ± 0.021
ACGTTGGCGT	0.966 ± 0.041
AATAGTTTTT	0.986 ± 0.055
AATAGTAGCG	1.01 ± 0.054
TGTGCAGAAA	0.9899 ± 0.0059
GAGCGTAAGT	0.958 ± 0.03
ATTATATCCC	1.06 ± 0.026
GCTCCTACGA	1.46 ± 0.046

Sequence	switch fluorescence ratio
TTTTTCGTTA	1.1 ± 0.083
TTGTGTC	1.06 ± 0.023
GGGAGTAGGG	0.998 ± 0.015
TTGCGCCCCC	1.104 ± 0.011
GCTTCTGGTT	0.988 ± 0.023
TTGCTAGTTG	0.994 ± 0.036
ACGGAAGTGC	1.12 ± 0.036
CTGTCCAGTT	1.02 ± 0.048
TTTGTCTTGG	0.972 ± 0.031
CATGTAAGGA	0.985 ± 0.015
GGGACTATGA	1 ± 0.021
CCACGTTGAA	1.05 ± 0.033
GAAGGAAGAT	0.9708 ± 0.0069
CGTTGATCAG	0.976 ± 0.024
GGGTGGGCGT	1.05 ± 0.043
TATAAGAGAA	0.972 ± 0.031
CGGTCAGTAA	1.03 ± 0.022
AAAAATCTGC	1.03 ± 0.12
GGGGGGAATG	1 ± 0.03
TCAGTATAGG	1.01 ± 0.021
TCATGAAAAG	0.997 ± 0.013
ATGGTCTTTT	1.014 ± 0.0032
ATATAGCACG	1.02 ± 0.033
AGAGTCAATG	1.04 ± 0.023
GAAGGAATGT	1 ± 0.022
